Reference: article PMC12327374 (Biomedicine & pharmacotherapy = Biomedecine & …, 2024)

Target: SUSD5 protein, expressed on HEK293 cells (ZsGreen1-SUSD5 vector) (Homo sapiens, UniProt O60279)
Test: flow cytometry on cells

Sequence of SUSD5 protein, expressed on HEK293 cells (ZsGreen1-SUSD5 vector) (O60279 36-629): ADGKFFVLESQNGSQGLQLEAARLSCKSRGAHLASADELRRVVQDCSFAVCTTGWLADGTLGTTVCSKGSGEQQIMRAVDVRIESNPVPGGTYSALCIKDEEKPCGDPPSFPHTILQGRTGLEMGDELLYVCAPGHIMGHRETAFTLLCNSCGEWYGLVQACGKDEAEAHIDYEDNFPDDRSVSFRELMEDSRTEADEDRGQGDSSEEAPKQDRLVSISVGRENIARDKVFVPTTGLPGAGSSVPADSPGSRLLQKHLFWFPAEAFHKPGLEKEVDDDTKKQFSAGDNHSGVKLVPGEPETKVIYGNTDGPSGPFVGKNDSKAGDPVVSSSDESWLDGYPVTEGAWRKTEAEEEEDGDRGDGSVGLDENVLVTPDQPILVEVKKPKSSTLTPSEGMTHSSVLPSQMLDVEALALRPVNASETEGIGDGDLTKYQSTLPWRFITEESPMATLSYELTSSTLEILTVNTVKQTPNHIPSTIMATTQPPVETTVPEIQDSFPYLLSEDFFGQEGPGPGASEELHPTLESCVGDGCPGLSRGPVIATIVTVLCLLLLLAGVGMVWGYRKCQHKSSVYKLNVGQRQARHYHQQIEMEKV

B1: h1-3F1, stabilized humanized anti-CD169 mAb of clone #3F1 (variant 6 of h0-3F1) (antibody, V domains shown)
VH: QVQLVQSGAEVKKPGASVKVSCKASGYSFTTYYMHWVRQAPGQRLEWMGWISAYSGATKYSQKFQGRVTITRDTSASTAYMELSSLRSEDTAVYYCARKGGWIPFDYWGQGTTVTVSS
VL: not shown
binding result: binds
